Data published in paper PMC3628515 (The Journal of Cell Biology, 2013).

Biological target: T1, FAP100-HA (FAP100/Mia1p with a triple HA tag, in the rescued strain mia1R) (C. reinhardtii, UniProt A8I4E9 1-576)
T1 sequence (looked up): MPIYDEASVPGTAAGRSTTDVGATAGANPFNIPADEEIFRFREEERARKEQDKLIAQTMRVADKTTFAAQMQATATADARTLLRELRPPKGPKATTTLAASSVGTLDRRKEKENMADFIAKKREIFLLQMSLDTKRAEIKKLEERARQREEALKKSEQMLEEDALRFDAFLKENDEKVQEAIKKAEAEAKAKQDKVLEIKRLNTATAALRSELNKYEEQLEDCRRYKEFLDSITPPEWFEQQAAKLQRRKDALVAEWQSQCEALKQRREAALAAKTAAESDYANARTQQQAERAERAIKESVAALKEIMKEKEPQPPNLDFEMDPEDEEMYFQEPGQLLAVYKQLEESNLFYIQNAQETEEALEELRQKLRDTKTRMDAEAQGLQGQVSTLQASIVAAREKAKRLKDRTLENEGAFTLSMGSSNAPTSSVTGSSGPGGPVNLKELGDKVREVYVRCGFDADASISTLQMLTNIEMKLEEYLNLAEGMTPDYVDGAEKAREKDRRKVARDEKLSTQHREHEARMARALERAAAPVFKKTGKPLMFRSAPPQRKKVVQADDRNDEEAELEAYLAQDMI
Experiment: affinity purification with mass spectrometry

stoichiometry N: 1.83 to 2.89 FAP73 per FAP100
B1: FAP73 (Mia2p), endogenous (natural protein, UniProt M1V4Y8 1-308, looked up)
chain: MDEEGSATARAKMMPQTLVLDHVSPATRLLEKRRQMFEVQEALEAQKQDFNRKEEVFKRREEALKLKDLELQESLIRFSKFLQENDSKRARAEKKANDEIKARIQKEKEIEQLTEVLEELKSEKERILEVLEKNMRYQHYLESVLEVADEYQEVADLLLRHATLSATNADLKDHQRKCSELAEKVRTELQIYVKQKTDEILNLNNQVAKLKTELEGYEAEAMVQEAKKDSSLQIASQRTLEYGQVVLSADNIFNRCRSKSSIGHPAESNPLHQLDVIGNFVSDLGSIIKQFKQEQAKRASLASRAEIE
